Source: article PMC11508087 (PLOS Pathogens, 2024)

These binders were tested against FMDV O/18074 146S antigen (Foot-and-mouth disease virus serotype …, strain) (assay: not given). Details: not given.

Binder	binding result
pOA-12 (antibody, V domains shown) VH: EEKLVESGGGLVQPGGSLTLSCVGSGFYFSNYEIVWVRQVRGGGLEWISYVSNGGARTSYALSVKGRFTIFRDNSRNTVDLHLNNLRIEDTARYYCVGGGQCLGDNCYSMALWGPGVEVFVSS VL: QTVIQEPAMSVSLGGTVTLTCAFTSGSVTKTNYPSWFQQTPGQPPRQLIYHTDNQATGVPSRFSGAISGNKATFTITGAQAEDEADYFCCLYRGTTNVPFGGGTRLTVL	binds
pOA-16 (antibody, V domains shown) VH: EEKLVESGGGLVQPGGSLTLSCVGSGFDFSLYNMIWVRQAPGKGLEWLAGIWESGVQDSYPESMKGRFTISRDNSQNTAYLKIHILGMEDTARYYCASGARCGEDRCIDLWGPGVEVVVSS VL: QTVIQEPAMKVSPGGTVTLSCAFSSGSVTTSNYPSWFQHTPGQPPRLLMYRTSYRPTGVNSRFSGAISGNKATLTITGAQTTDEADYYCALFLNTITIPFGGGTHLTVL	binds
pOA-11 (antibody, V domains shown) VH: EEKVVESGGGLVRPGESLRLSCVAEGVEFGRRSVRWVRQRPGKGLEFVIYMFNDAQSVDIADSVKGRFTISRDNSQNTAYLQMNRLTVEDTGRYFCLTANKWFGPGVEVVVSS VL: AIVLTQTPLSLSVTPGESVSISCKSTKSVLDTDGTIVLNWYLQRPGQAPQRVIWSTFYRETGVPDRFTGSGSDTDFTLHISRVEAEDVGVYYCQQSRESTSFGAGTKLDLK	binds
pOA-5 (antibody, V domains shown) VH: EEKLVESGGGLVQPGGSLRLSCVGSGFIFSSGEITWVRQAPGKGLEWLAYTTIRGTSKYYADSVGGRFTISRDDSQNTATLQMNSLRIEDTARYYCARGKEDAVQGYYGKALDLWGPGIGVVVSS VL: SSQLTQPPGVSVSLGGTATITCQGGSFGRYYSHWYKQRPGQAPILVIYDDAKRPAGIPDRFSGSTSGNSVTLTITGAQAEDEADYYCQSVDRSGNAKFGGGTHLTVL	binds
pOA-14 (antibody, V domains shown) VH: EERLVESGGGLVQPGGSLKLSCVASGFDFQKYMINWVRQAPGKGLEWLALIWNDGKQRYYVESAHMRFTISRNNSQNTAYLEMNRLRVEETARYYCARGWGVEKMDLWGPGVEVAVSS VL: QTVIQEPAMTVSLGGTVTLTCGFSSGSVTGTKYPNWYQQTPGQRPRLLIYSTKIRPTGVPSRFSGAISGNKATLTIMGAGAEDEADYYCSLNQNYKIIFGAGTHLIVL	binds
pOA-4 (antibody, V domains shown) VH: EEKLVESGGGLVRPGGSLRLSCVGSGFPWNTYSVRWVRQAPMKGLEFVAYIFKNDNDRDYASSVKGRFTISRDNSQNTAYLQMNNLRTEDTAHYYCLLANKYWGPGVEVVVSS VL: AVVLTQTPVSLTVSVGEPASISCSSSQSLVEDDGSSVLNWYLQKPGQSPQRLIYSAVGRDTGVPDRFSGSGSGTEFTLKISRVEAEDAGVYYCQQSRFSTSFGAGSKLELK	binds
pOA-18 (antibody, V domains shown) V domain 1: EEKLVESGGGLVQPGGSLRLSCVGSGFTFTNYEIVWVRQAPGRGPEWISYISNGGARKAYATSVRGRFSISRDNSRNTVDLQLNNLKIEDTGRYYCVGGGHCLGDNCYSLSLWGPGVELVVSS V domain 2: QTVIQEPAMSVSPGGTVTLTCAFYSGSVTSENYPSWFQQTSGQPPREVIYMTDNRPTGVPDRFSGSISGNKATLTITGAQAEDEADYFCMLYKGTTNVPFGGGTHLTVL	binds
pOA-15 (antibody, V domains shown) VH: EEKLVESGGGLVQPGGSLRLSCVGSGFDLSDYGFSWVRQAPGKGLETMAFIDSRTSSFTTYTVIGVKGRFTIDNDNALQLNSLTSEDTARYFCARGRGSNGPKGLIGAYGMDLWGPGVEVVVSS VL: QIVIQEPAMSVSLGGTVTLTCAYRSGSVTIKDGPNWYQQTPGQPPRQLIYNTNSRPTGVPSRFSGAISGNKATLTIAGAQAEDEAEYFCILYKNLEEVRFGDGTHLSVV	binds

The binders below were run against T1, FMDV O/Tibet/99 146S antigen (Foot-and-mouth disease virus serotype …, strain) (assay: BLI; RED96; […] (10 μg/ml) […]; 0.01 M PBS, 0.1% BSA, 0.02% Tween 20; global fit). Details: both partners purified.
T1 construct: copies: + + +

Binder	Kd
pOA-1 (antibody, V domains shown) VH: EENVVESGGGLVRPGGSLRLSCIFSGFTFSTYSVRWVRQAPGKGLEFLTYIFKNVGDIDTADSVKGRFTISRDNSQNTAYLQMNSLRPEDTARYFCLVANKYWGPGVEVLVSS VL: AIVLTQSPLSLSVSPGDSASISCRSSQSLVEDDGSSVLNWYLQRPGQSPQRLIYSAVGRDAGVPDRFSGSGSGTDFTLTISGVEAEDLGVYYCQQSKVSTTFGAGSKLDLK	0.04 nM
